Test results as given in patent US10456465B2, “Compositions, kits, and methods for the diagnosis prognosis, monitoring, treatment and modulation of post-transplant lymphoproliferative disorders and hypoxia associated angiogenesis disorders using galectin-1” (Dana-Farber Cancer Institute, Inc., priority 2009, dated 2019).

B1: anti-Gal1 monoclonal antibody 8F4F8G7 (antibody, V domains shown)
VH: EVQLQQSVAEFVRPGASVRLSCTASGFNIKNTYIHWVRQRPEQGLEWIGKIDPANGNTKYVPEFQGKATMTADTSSNTVYLHLSSLTSEDTAIYYCVDGYYGWYFAVWGTGTTVTVSS
VL: QAVVTQESALTTSPGETVTLTCRSSTGAVTTSNYANWVQEKPDHLFTGLIGATNNRAPGVPARFSGSLIGDKAVLTITGAQTEDEAIYFCALWYRNHFIFGSGTKVTVL
notes: Murine hybridoma mAb (deposit PTA-10535), lambda light chain; also called 14-19 8F4-F8-G7; clone 8F4.8F.67

Assays:
[1] = tested on: HUVEC; assay: HUVEC invasion (BioCoat Angiogenesis system); assay type: cell-based, human; settings: HUVEC treated with Gal1
Experimental: HUVEC transfected or not with specific siRNA or pre-incubated with signaling pathway inhibitors were exposed to VEGF or Gal1 with or without lactose, sucrose, 8F4F8G7 mAb or control isotype (IgG1κ) or specific antibodies for VEGFR1 (AP-MAB0702; Abcam), VEGFR2 (AF357; R&D), VEGFR3 (AB89501; Abcam) or VEGF (MAB293; R&D). Cells were processed for proliferation, migration, invasion and tube formation assays. Tumor-associated blood vessels were identified by flow cytometry using Alexa Fluor 647-conjugated anti-CD34 antibody (RAM34; eBioscience).
Invasion assays were performed using the BioCoat Angiogenesis system (BD Biosciences) following manufacturer's recommendations. For assessment of in vivo angiogenesis, growth factor-reduced Matrigel (BD Biosciences) was mixed with Gal1 (0.1 or 3 μM) with or without lactose (30 mM). In another set of experiments, serum-free CM from KS cells infected or not with a retroviral vector expressing Gal1 shRNA and cultured under hypoxic or normoxic conditions, were added to unpolymerized Matrigel and injected subcutaneously into the flanks of either wild-type or Lgals1^−/− (B6) mice or nude mice using a cold syringe. Matrigel embedded with buffer alone was used as negative control and a cocktail containing VEGF (50 ng/ml), heparin (50 U/ml) and TNF (2 ng/ml) was used as positive control. […]

[2] = tested on: mice (Matrigel plugs); assay: In vivo vascularization of Matrigel sponges; design: species or system mouse; settings: Gal1 0.1 or 3 μM; 6 days; hemoglobin content
Experimental: Invasion assays were performed using the BioCoat Angiogenesis system (BD Biosciences) following manufacturer's recommendations. For assessment of in vivo angiogenesis, growth factor-reduced Matrigel (BD Biosciences) was mixed with Gal1 (0.1 or 3 μM) with or without lactose (30 mM). In another set of experiments, serum-free CM from KS cells infected or not with a retroviral vector expressing Gal1 shRNA and cultured under hypoxic or normoxic conditions, were added to unpolymerized Matrigel and injected subcutaneously into the flanks of either wild-type or Lgals1^−/− (B6) mice or nude mice using a cold syringe. Matrigel embedded with buffer alone was used as negative control and a cocktail containing VEGF (50 ng/ml), heparin (50 U/ml) and TNF (2 ng/ml) was used as positive control. After 6 days, Matrigel plugs were collected by surgery, photographed and weighed. Samples were minced and diluted in water to measure hemoglobin content using the Drabkin reagent kit (Sigma). Each sample was normalized to 100 mg of recovered gel and confronted with a standard curve of mouse blood hemoglobin.

[3] = tested on: VEGFR2; assay: Immunoblot of VEGFR2 phosphorylation in HUVEC; assay type: cell-based, human
Experimental: Array (Cell Signaling) following manufacturer's directions. For co-immunoprecipitation, 500 μg cell lysates were incubated with 2 μg of anti-VEGFR2 (55B11; Cell Signaling) or anti-NRP-1 (C-19; Santa Cruz Biotechnol) antibodies. The immunocomplexes were captured with protein G PLUS-Agarose (Santa Cruz Biotechnol) and processed for immunoblot analysis as described in Ilarregui et al. (2009) Nat Immunol 10, 981-991. Equal amounts of protein were resolved by SDS-PAGE, blotted onto nitrocellulose membranes (GE Healthcare) and probed with anti-IκB-α (C21), anti-Erk1/2 (C14), anti-phospho-Erk1/2 (E4) or anti-actin (I-19) (all from Santa Cruz Biotechnol) or anti-Akt (9272), anti-phospho-Akt (9271S), anti-VEGFR2 (55B11), anti-phospho-VEGFR2 (19A10) (all from Cell Signaling) or anti-HIF-1α (mgc3; ABR BioReagent) antibodies or a rabbit anti-Gal1 IgG (1.5 μg/ml) obtained as described in Ilarregui et al. (2009) Nat Immunol 10, 981-991.

[4] = tested on: B16 tumors; assay: Anti-tumor immune response in B16 tumor-bearing mice (TDLN restimulation, FACS); assay type: in vivo, mouse
Experimental: Wild-type KS cells or shRNA clones (5×10^6 cells) were injected subcutaneously into 6- to 8-week old nude mice. Wild-type B16 cells or shRNA clones (2×10^5 cells) were injected into 6- to 8-week old B6 or B6/Rag^−/− mice and tumor development was monitored as described in Rubinstein et al. (2004) Cancer Cell 5, 241-251. Treatments with 8F4F8G7 mAb or control isotype (2.5, 7.5 or 15 mg/kg; i.p. injections every three days) were initiated when tumors reached 100 mm^3. Mice were sacrificed when tumors reached a volume greater than 2 cm^3. At 2 weeks after tumor challenge, lymph node cells (5×10^5 cells/well) were restimulated for 72 h with 1×10^4 irradiated (4,000 rads) B16 cells and were analyzed for proliferation and cytokine production. For adoptive transfer, splenic T cells (5×10^6) from tumor-bearing mice were labeled with CFSE (Molecular Probes) and injected through the tail vein into tumor-bearing recipient mice treated with 8F4F8G7 or control mAb. In related studies, fluorescent beads (3 μm; BD Biosciences), rather than splenic T cells, were injected into tumor-bearing animals treated with 8F4F8G7 or control antibody. CFSE^+ cells or PerCP-labeled beads were analyzed after 24 h or 15 min respectively by flow cytometry in tumor parenchyma and spleen.
For intracellular cytokine staining, TLDN or tumor-infiltrating lymphocytes were made permeable with Perm2 solution (BD Biosciences) and were labeled with fluorescent-labeled monoclonal anti-IFN-γ (XMG1.2; BD Biosciences), anti-IL-17 (TC11-18H10; BD Biosciences), anti-IL-10 (JESS-16E3; eBioscience), anti-CD4 (GK1.5; BD Biosciences), anti-CD8 (H35-17.2; eBioscience) antibodies. Treg cells were determined by using the mouse Treg staining kit (FJK-16s, eBioscience). Cells were analyzed on a FACSAria (BD Biosciences) using a FlowJO software.
Mouse IFN-γ and IL-10 ELISA sets were from BD Biosciences and mouse IL-17 kit was from R&D. Human soluble VEGF was assessed by ELISA (DY293B; R&D). Soluble Gal1 was determined using an in-house ELISA. Briefly, high binding 96-well microplates (Corning Costar) were coated with capture antibody (2 μg/ml purified rabbit anti-Gal1 polyclonal IgG) in 0.1 M sodium carbonate pH 9.5. After incubation for 18 hours at 4° C., wells were rinsed three times with wash buffer (0.05% Tween-20 in PBS) and incubated for 1 h at RT with blocking solution (2% BSA in PBS). Samples and standards (100 μl) were diluted in 1% BSA and incubated for 18 hours at 4° C. Plates were then washed and incubated with 100 ng/ml biotinylated detection antibody (purified rabbit anti-Gal1 polyclonal IgG) for 1 hour at RT. Plates were rinsed three times before adding horseradish peroxidase-labeled streptavidin (0.33 μg/ml; Sigma) for 30 min at RT. After washing, 100 μl of TMB solution (0.1 mg/ml tetramethylbenzidine and 0.06% H2O2 in citrate-phosphate buffer pH 5) was added to the plates. The reaction was stopped by adding 4N H2SO4. Optical densities were determined at 450 nm in a Multiskan MS microplate reader (Thermo Electron Corporation). A standard curve ranging from 2.5 to 160 ng/ml recombinant Gal1 was run in parallel.

[5] = restimulated ex vivo with B16 cells

Molecule | EC invasion [1] | vascularization of Matrigel sponges containing recombinant Gal1 [2] | VEGFR2 phosphorylation in response to Gal1 [3] | B16-specific IL-10 production ([4]; mouse, in vivo) | proliferation of tumor-draining lymph node cells [4, 5] | synthesis and secretion of IFN-γ by tumor-draining lymph node cells [4, 5] | synthesis and secretion of IL-17 by tumor-draining lymph node cells [4, 5] | frequency of CD4+CD25+FoxP3+ Treg cells in TDLN ([4]; vs isotype control) | number of tumor-infiltrating IFN-γ-producing CD8+ T cells ([4]; vs isotype-treated mice)
rGal1: recombinant human galectin-1 | elicited | rapidly became vascularized |  |  |  |  |  |  | 
B1 |  |  | specifically inhibited | blunted | stimulated | stimulated | stimulated | decline | dramatic increase
